One molecule from US20250099504A1 (INSTITUTE OF HEMATOLOGY AND BLOOD DISEASES HOSPITAL CHINESE …, published 2025) can be followed below.

For this experiment, the target named is T1, human CD7 (human, UniProt P09564 26-240).
T1 construct: whole, on cells; also called CD7 antigen; CD7 on the surface of Jurkat, Molt4, CCRF-CEM and Hut78 cells
T1 sequence (looked up): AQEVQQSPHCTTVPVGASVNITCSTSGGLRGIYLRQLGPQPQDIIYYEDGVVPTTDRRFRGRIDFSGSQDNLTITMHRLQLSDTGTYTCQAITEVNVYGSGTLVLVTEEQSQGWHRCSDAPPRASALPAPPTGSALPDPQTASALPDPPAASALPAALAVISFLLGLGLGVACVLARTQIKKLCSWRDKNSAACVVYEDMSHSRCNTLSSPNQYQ
Put plainly: FACS on Jurkat, Molt4, CEM and Hut78 cells that highly express human CD7; antibody at 0.15 µg/100 µl. Here is the method:
Binding of the monoclonal antibody HIT7 in Example 1 and the commercialized CD7-6B7 antibody (Biolegend, PE/Cyanine7 anti-human CD7 antibody, clone number CD7-6B7) to CD7 on the surface of Jurkat, Molt4, CCRF-CEM, and Hut78 cells that highly expressed human CD7 was tested by FACS: The antibody was incubated at a concentration of 0.15 μg/100 μl with 2×10⁵ Jurkat, Molt4, CEM, and Hut78 cells respectively at 4° C. in dark for 30 minutes, washed twice with PBS, resuspended by 100 μl, and loaded for FACS test.

B1: monoclonal antibody HIT7 (antibody, V domains shown)
VH: QVQLQESGPGLVKPSQTVSLTCTVTGISITTGNYRWSWIRQFPGNKLEWIGYIYYSGIITYNPSRTSRTTITRDISKNQFFLEMNSLTAEDTATYYCARERGIYYDSLWYFDVWGAGTTVTVSS
VL: DIVLTQSPASLAVSLGQRATISCRASKSVSASGYSYMHWYQQKPGQPPKLLIYLASNLESGVPARFSGSGSGTDFTLNIHPVEEEDAVTYYCQHSRELPYTFGGGTKLEIKR
notes: also called CD7-HIT7 monoclonal antibody; mouse anti-human CD7 monoclonal antibody
In the case of B1, the binding result was “binds”.
